Measured values: the Human Domainome abundance scans (Beltran et al. 2025)
± gives the uncertainty stated by the source.

B1: Transcription factor SOX-4, residues 60 to 127; numbered along this chain, Q06945 (parent)
chain: KRPMNAFMVWSQIERRKIMEQSPDMHNAEISKRLGKRWKLLKDSDKIPFIREAERLRLKHMADYPDYK

Variants of: B1
Experiment: abundance fitness (aPCA) (normalised: wild type 0, dead -1); higher = more abundant; growth selection in yeast, the domain comes from the species named
Conditions: Homo sapiens

Point of comparison: K46M, abundance fitness -0.841 ± 0.074. Against it:
- K42C — higher, -0.28 ± 0.2
- K42D — higher, -0.274 ± 0.16
- K42G — higher, -0.264 ± 0.075
- K42H — within error, -0.487 ± 0.28
- K42I — within error, -0.609 ± 0.17
- K42L — higher, -0.368 ± 0.055
- K42M — higher, -0.465 ± 0.1
- K42N — higher, -0.212 ± 0.17
- K42Q — higher, -0.104 ± 0.063
- K42S — higher, 0.13 ± 0.053
- K42V — higher, -0.372 ± 0.074
- K42W — within error, -0.786 ± 0.13
- D43A — higher, -0.061 ± 0.055
- D43C — higher, -0.37 ± 0.058
- D43E — higher, -0.058 ± 0.057
- D43F — higher, -0.087 ± 0.041
- D43G — higher, -0.27 ± 0.046
- D43I — higher, -0.226 ± 0.058
- D43K — higher, -0.273 ± 0.06
- D43L — higher, -0.151 ± 0.044
- D43M — higher, -0.062 ± 0.056
- D43N — higher, -0.294 ± 0.053
- D43P — higher, -0.137 ± 0.067
- D43Q — higher, -0.337 ± 0.069
- D43S — higher, -0.237 ± 0.037
- D43V — higher, -0.262 ± 0.039
- D43W — higher, -0.106 ± 0.043
- S44A — higher, 0.035 ± 0.053
- S44C — higher, -0.472 ± 0.13
- S44D — higher, -0.217 ± 0.14
- S44E — higher, 0.119 ± 0.1
- S44F — higher, -0.442 ± 0.13
- S44H — higher, -0.205 ± 0.1
- S44M — higher, -0.243 ± 0.1
- S44N — higher, -0.23 ± 0.18
- S44P — higher, -0.465 ± 0.13
- S44Q — higher, -0.073 ± 0.073
- S44R — higher, -0.264 ± 0.066
- S44T — higher, -0.134 ± 0.12
- S44V — higher, -0.164 ± 0.066
- S44W — higher, -0.41 ± 0.099
- S44Y — within error, -0.687 ± 0.19
- D45A — higher, -0.239 ± 0.071
- D45C — within error, -0.758 ± 0.25
- D45E — higher, -0.074 ± 0.089
- D45F — within error, -0.39 ± 0.48
- D45G — higher, -0.495 ± 0.1
- D45H — higher, -0.429 ± 0.32
- D45K — within error, -0.486 ± 0.33
- D45L — higher, -0.378 ± 0.09
- D45M — higher, -0.395 ± 0.14
- D45Q — higher, -0.097 ± 0.16
- D45R — within error, -0.74 ± 0.094
- D45S — higher, -0.431 ± 0.089
- D45T — higher, -0.576 ± 0.11
- D45V — higher, -0.414 ± 0.082
- D45W — higher, -0.344 ± 0.12
- D45Y — higher, -0.361 ± 0.21
- K46A — within error, -0.937 ± 0.13
- K46C — within error, -0.814 ± 0.087
- K46D — higher, -0.524 ± 0.072
- K46F — within error, -0.995 ± 0.11
- K46H — lower, -1.09 ± 0.14
- K46I — higher, -0.553 ± 0.072
- K46L — higher, -0.652 ± 0.063
- K46N — lower, -1.08 ± 0.11
- K46P — within error, -0.933 ± 0.2
- K46Q — within error, -0.701 ± 0.14
- K46R — higher, -0.237 ± 0.04
- K46S — within error, -0.901 ± 0.066
- K46T — higher, -0.694 ± 0.06
- K46V — within error, -0.798 ± 0.061
- K46W — within error, -0.95 ± 0.11
- K46Y — within error, -1 ± 0.13
- I47A — higher, 0.031 ± 0.063
- I47C — higher, -0.546 ± 0.062
- I47D — higher, -0.128 ± 0.054
- I47E — higher, 0.095 ± 0.059
- I47F — higher, -0.241 ± 0.051
- I47G — higher, -0.231 ± 0.039
- I47H — higher, -0.314 ± 0.051
- I47K — higher, -0.112 ± 0.074
- I47L — higher, 0.078 ± 0.038
- I47M — higher, -0.047 ± 0.05
- I47N — higher, -0.322 ± 0.05
- I47P — within error, -0.796 ± 0.4
- I47Q — higher, -0.006 ± 0.074
- I47S — higher, -0.319 ± 0.041
- I47T — higher, -0.178 ± 0.046
- I47V — higher, -0.086 ± 0.037
- I47W — higher, -0.251 ± 0.045
- I47Y — higher, -0.224 ± 0.054
- P48C — higher, -0.504 ± 0.084
- P48D — higher, -0.469 ± 0.077
- P48E — higher, -0.189 ± 0.049
- P48F — higher, -0.351 ± 0.076
- P48G — higher, -0.51 ± 0.042
- P48H — higher, -0.31 ± 0.048
- P48I — higher, -0.089 ± 0.08
- P48K — higher, -0.482 ± 0.1
- P48M — higher, -0.168 ± 0.069
- P48Q — higher, -0.286 ± 0.2
- P48R — higher, -0.4 ± 0.055
- P48S — higher, -0.453 ± 0.057
- P48T — higher, -0.346 ± 0.071
- P48V — higher, -0.315 ± 0.044
- P48W — higher, -0.493 ± 0.069
- P48Y — higher, -0.566 ± 0.1
- F49A — higher, -0.533 ± 0.084
- F49G — within error, -0.702 ± 0.092
- F49H — higher, -0.131 ± 0.31
- F49I — within error, -0.82 ± 0.26
- F49K — within error, -0.879 ± 0.17
- F49L — higher, -0.598 ± 0.065
- F49M — within error, -1.08 ± 0.31
- F49P — within error, -1.08 ± 0.23
- F49Q — within error, -0.972 ± 0.15
- F49R — lower, -1.04 ± 0.11
- F49S — within error, -0.763 ± 0.098
- F49T — higher, -0.623 ± 0.13
- F49V — within error, -0.763 ± 0.094
- F49Y — higher, -0.044 ± 0.11
- I50A — higher, -0.186 ± 0.1
- I50C — higher, -0.51 ± 0.2
- I50E — higher, 0.009 ± 0.081
- I50F — higher, 0.003 ± 0.12
- I50G — higher, -0.309 ± 0.07
- I50K — higher, -0.362 ± 0.14
- I50L — higher, -0.194 ± 0.082
- I50N — higher, -0.284 ± 0.19
- I50Q — higher, -0.021 ± 0.1
- I50R — higher, -0.2 ± 0.1
- I50S — higher, -0.322 ± 0.086
- I50T — higher, -0.337 ± 0.086
- I50W — within error, -0.633 ± 0.15
- I50Y — higher, 0.041 ± 0.28
- E52C — higher, -0.353 ± 0.11
- E52D — higher, -0.223 ± 0.13
- E52F — higher, -0.215 ± 0.11
- E52G — higher, -0.375 ± 0.13
- E52H — within error, -0.726 ± 0.3
- E52K — higher, -0.515 ± 0.12
- E52L — higher, -0.3 ± 0.062
- E52M — higher, -0.394 ± 0.071
- E52N — within error, -0.893 ± 0.19
- E52P — within error, -1.14 ± 0.29
- E52Q — higher, -0.291 ± 0.088
- E52R — higher, -0.322 ± 0.1
- E52S — within error, -0.712 ± 0.11
- E52T — higher, -0.477 ± 0.11
- E52V — higher, -0.556 ± 0.065
- E52W — higher, -0.58 ± 0.14
- E52Y — within error, -0.634 ± 0.23
- A53C — within error, -0.824 ± 0.27
- A53E — higher, -0.52 ± 0.084
- A53F — the same, -0.841 ± 0.27
- A53G — higher, -0.684 ± 0.08
- A53H — higher, -0.42 ± 0.17
- A53I — within error, -0.662 ± 0.23
- A53L — within error, -0.856 ± 0.17
- A53M — higher, -0.585 ± 0.088
- A53N — higher, -0.275 ± 0.24
- A53P — within error, -1.19 ± 0.3
- A53Q — within error, -0.898 ± 0.17
- A53R — within error, -0.924 ± 0.087
- A53S — higher, -0.431 ± 0.055
